Data from US20210380703A1 (RIGEL PHARMACEUTICALS, published 2021).
Residue numbers refer to the chain shown, from its start.

Columns and labels:
[1] = target: T1, biotinylated goat anti-human kappa light chain; assay: ELISA, positive control
T1 construct: positive control of the ELISA
Outline: (§1)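 Binding signal was read by ELISA after ACVR2A-specific monoclonal antibodies were tested against human ACVR2A and mouse ACVR2A, with human Fc as the negative control.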

mouse ACVR2A = mouse ACVR2A (mouse, UniProt P27038 20-135, limits assumed); assay: ELISA
Outline: as §1

human ACVR2A = target: T2, human ACVR2A (human, UniProt P27037 20-135, limits assumed); assay: ELISA
T2 construct: also called activin receptor, type II A
Outline: as §1
Also: test concentration or dose not given here.

T2 sequence (P27037 20-135 limits assumed): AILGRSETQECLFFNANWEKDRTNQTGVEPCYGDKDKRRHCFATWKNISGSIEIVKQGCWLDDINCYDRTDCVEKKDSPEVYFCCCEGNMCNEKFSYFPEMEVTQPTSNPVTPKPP
Sequence of mouse ACVR2A (P27038 20-135 limits assumed): as the sequence (P27037 20-135 limits assumed) above, with K20R, V73I counted along it

B1: 373_B01 (antibody, V domains shown)
VH: EVQLLESGGGLVQPGGSLRLSCAASGFTFDSYGMHWVRQAPGKGLEWVSGINYNGGYKSYADSVKGRFTISRDNSKNTLYLQMNSLRAEDTAVYYCARAATWHDTHLDYWGQGTLVTVSS
VL: DIQMTQSPSSLSASVGDRVTITCRASQSILSYVNWYQQKPGKAPKLVIYAATSRASGVPSRFSGSGSGTDFTLTISSLQPEDFATYYCQQSYDLPLTFGGGTKVEIK
notes: Group II
[1]
  optical density: 3.11 OD
Mouse ACVR2A
  optical density: 3.58 OD
Human ACVR2A
  optical density: 3.26 OD

B2: 371_D07 (antibody, V domains shown)
VH: B1 VH with S31D, H35N, S49A, G50N, S59G, T101N
VL: B1 VL with S31T, V33L, D93E
notes: Group I
[1]
  optical density: 3.59 OD
Mouse ACVR2A
  optical density: 2.9 OD
Human ACVR2A
  optical density: 2.66 OD

B3: 375_A04 (antibody, V domains shown)
VH: B1 VH with H35N, S49A, T101N, H106A
VL: B1 VL with S31T, V33L, A50Y, A51V, T52N, S53N, R54L, A55P, D93N, L94S
notes: Group I
[1]
  optical density: 3.1 OD
Mouse ACVR2A
  optical density: 3.73 OD
Human ACVR2A
  optical density: 3.72 OD

B4: 375_A11 (antibody, V domains shown)
VH: B1 VH with D30S, S31D, G50S, G55S, T101N, H106A
VL: B1 VL with L30V, V33L, V47L, A50Y, A51V, S53N, R54L, L94N
notes: Group I
[1]
  optical density: 3.05 OD
Mouse ACVR2A
  optical density: 3.7 OD
Human ACVR2A
  optical density: 3.73 OD

B5: 365_B10 (antibody, V domains shown)
VH: B1 VH with S31D, G33S, S49A, G50S, G55S, S59G, T101N, H106A
VL: B1 VL with S31R, V33L, V47L, Y92D, D93N
notes: Group I
[1]
  optical density: 3.21 OD
Mouse ACVR2A
  optical density: 2.78 OD
Human ACVR2A
  optical density: 2.82 OD

B6: 376_D08 (antibody, V domains shown)
VH: B1 VH with H35N, S49A, G50N, G55S, H106A
VL: B1 VL with S31T, V33L, A50Y, T52N, S53N, A55P, D93S, L94N
notes: Group II
[1]
  optical density: 3.47 OD
Mouse ACVR2A
  optical density: 3.71 OD
Human ACVR2A
  optical density: 3.81 OD

B7: 365_E10 (antibody, V domains shown)
VH: B1 VH with G33S, H35N, G50S, G55S, S59G, A99G, T101N
VL: not shown
notes: Group III
[1]
  optical density: 3.34 OD
Mouse ACVR2A
  optical density: 2.05 OD
Human ACVR2A
  optical density: 1.82 OD

B8: 375_C10 (antibody, V domains shown)
VH: B1 VH with D30S, S49A, G50S, K58T, T101N, H106A
VL: not shown
notes: Group I
[1]
  optical density: 3.33 OD
Mouse ACVR2A
  optical density: 3.6 OD
Human ACVR2A
  optical density: 3.46 OD

B9: 376_F09 (antibody, V domains shown)
VH: B1 VH with G33S, G50S
VL: B1 VL with S31T, V47L, A51V, L94T
notes: Group II
[1]
  optical density: 3.35 OD
Mouse ACVR2A
  optical density: 3.59 OD
Human ACVR2A
  optical density: 3.5 OD

B10: 375_D02 (antibody, V domains shown)
VH: B1 VH with D30S, G33S, H35N, G50N, K58T
VL: B1 VL with S31T, V33L, V47L, T52S, R54L, A55Q, D93E
notes: Group II
[1]
  optical density: 3.2 OD
Mouse ACVR2A
  optical density: 3.56 OD
Human ACVR2A
  optical density: 3.63 OD

B11: 375_H04 (antibody, V domains shown)
VH: B1 VH with D30S, S49A, G55S, K58T, S59G
VL: B1 VL with V33L, D93S, L94N
notes: Group II
[1]
  optical density: 3.15 OD
Mouse ACVR2A
  optical density: 3.16 OD
Human ACVR2A
  optical density: 3.11 OD

B12: 373_E11 (antibody, V domains shown)
VH: B1 VH with S49A, G50S, K58T, T101N, H106A
VL: B1 VL with L30V, V33L, L94S
notes: Group I
[1]
  optical density: 3.17 OD
Mouse ACVR2A
  optical density: 3.36 OD
Human ACVR2A
  optical density: 3.3 OD

B13: 374_B07 (antibody, V domains shown)
VH: B1 VH with D30S, G50S
VL: B1 VL with L30I, V33L, V47L, R54L, D93E, L94S
notes: Group II
[1]
  optical density: 3.29 OD
Mouse ACVR2A
  optical density: 3.71 OD
Human ACVR2A
  optical density: 3.71 OD

B14: 374_B01 (antibody, V domains shown)
VH: B1 VH with S49A, G55S, K58T
VL: B1 VL with V33L, V47L, T52S, R54L, A55Q, L94S
notes: Group II
[1]
  optical density: 2.92 OD
Mouse ACVR2A
  optical density: 3.37 OD
Human ACVR2A
  optical density: 3.14 OD

B15: 374_H02 (antibody, V domains shown)
VH: B1 VH with D30S, S49A, G50S, K58T
VL: B1 VL with V47L, R54L, L94T
notes: Group II
[1]
  optical density: 3.18 OD
Mouse ACVR2A
  optical density: 3.26 OD
Human ACVR2A
  optical density: 3.26 OD

B16: 375_G08 (antibody, V domains shown)
VH: B1 VH with D30S, K58T
VL: B1 VL with L30S, V47L, A51V, D93S, L94T
notes: Group II
[1]
  optical density: 3.27 OD
Mouse ACVR2A
  optical density: 3.43 OD
Human ACVR2A
  optical density: 3.33 OD

B17: 375_H01 (antibody, V domains shown)
VH: B1 VH with D30S, S31D, G33S, H35N, S49A, G55S, K58T, T101N
VL: B1 VL with S31T, V33L, V47L, A55H, D93S, L94N
notes: Group I
[1]
  optical density: 3.1 OD
Mouse ACVR2A
  optical density: 3.06 OD
Human ACVR2A
  optical density: 2.79 OD

B18: 373_G06 (antibody, V domains shown)
VH: B1 VH with D30S, S49A, G50S, G55S, K58T, S59G
VL: B1 VL with V47L, R54L, D93N
notes: Group II
[1]
  optical density: 3.23 OD
Mouse ACVR2A
  optical density: 3.52 OD
Human ACVR2A
  optical density: 3.4 OD

B19: 374_B02 (antibody, V domains shown)
VH: B1 VH with G33S, S49A, G55S, K58T, T101N
VL: B1 VL with L30I, V33L, V47L, L94S
notes: Group I
[1]
  optical density: 3.02 OD
Mouse ACVR2A
  optical density: 3.54 OD
Human ACVR2A
  optical density: 3.42 OD

B20: 374_F03 (antibody, V domains shown)
VH: B1 VH with D30S, H35N, S49A, G50S, K58T, T101N
VL: B1 VL with L30I, L94T
notes: Group I
[1]
  optical density: 3.23 OD
Mouse ACVR2A
  optical density: 3.62 OD
Human ACVR2A
  optical density: 3.53 OD

B21: 376_H12 (antibody, V domains shown)
VH: B1 VH with D30S, S31D, S49A, G50S, K58T
VL: B1 VL with L30I, S31T, V33L, D93E, L94S
notes: Group II
[1]
  optical density: 3.49 OD
Mouse ACVR2A
  optical density: 3.08 OD
Human ACVR2A
  optical density: 3.23 OD

B22: 375_F12 (antibody, V domains shown)
VH: B1 VH with S49A, G50S, K58T, T101N, H106A
VL: B1 VL with S31T, V33L, Y92D, D93E
notes: Group I
[1]
  optical density: 3.17 OD
Mouse ACVR2A
  optical density: 3.14 OD
Human ACVR2A
  optical density: 2.95 OD

B23: 375_C03 (antibody, V domains shown)
VH: B1 VH with G33S, K58T
VL: B1 VL with D93E, L94S
notes: Group II
[1]
  optical density: 3.16 OD
Mouse ACVR2A
  optical density: 3.24 OD
Human ACVR2A
  optical density: 3 OD

B24: 374_A12 (antibody, V domains shown)
VH: B1 VH with G50S, K58T
VL: B1 VL with S31T, V33L, V47L, Y92D, D93S, L94N
notes: Group II
[1]
  optical density: 3.06 OD
Mouse ACVR2A
  optical density: 3.26 OD
Human ACVR2A
  optical density: 3.31 OD

B25: 376_G02 (antibody, V domains shown)
VH: B1 VH with D30S, S31D, H35N, K58T, T101N, H106A
VL: B1 VL with L30S, S31R, V33L, R54L, L94N
notes: Group I
[1]
  optical density: 3.55 OD
Mouse ACVR2A
  optical density: 3.7 OD
Human ACVR2A
  optical density: 3.69 OD

B26: 373_D11 (antibody, V domains shown)
VH: B1 VH with D30S, S49A, K58T
VL: B1 VL with S31T, V47L, L94N
notes: Group II
[1]
  optical density: 3.2 OD
Mouse ACVR2A
  optical density: 3.55 OD
Human ACVR2A
  optical density: 3.57 OD
